In PMC4323794 one finds Kd data, which are given here for six substances.

The target in test [1] is GpIbα‐Fc fusion protein. Description: SPR. Background: Surface plasmon resonance follows binding to a sensor surface in real time, without labels.
The target in test [2] is GpIbα‐Fc fusion protein. Kind of test: ELISA. For orientation: An ELISA detects its analyte on a solid surface through an enzyme-linked reagent.
Test [3] concerns the target ΔD′D3‐VWF lacking the NFP (ΔD′D3NFP‾‐VWF) (human) (UniProt P04275). Description: ELISA.
Test [4] addresses Dimeric full‐length VWF (ΔPro‐VWF) (human) (UniProt P04275). Kind of test: ELISA.
For test [5], the target named is ΔD′D3‐VWF with Ala mutations replacing Thr/Ser (ΔD′D3OG‾‐VWF) (human) (UniProt P04275). Kind of test: ELISA.
Test [6] has as its target ΔD′D3‐VWF lacking the NFP (ΔD′D3NFP‾‐VWF) (human) (UniProt P04275). Description: ELISA. This is another data set of the same source.

Where two headings read alike, the source gives them in different places.

In general, Kd refers to the equilibrium constant for the complex coming apart. The low end stands for higher affinity, the high end for lower affinity. “D′D3‐A1 (from UniProt P04275 764-1480) (domain or fragment)” returned an equilibrium dissociation constant (Kd) with GpIbα‐Fc fusion protein [1] of 1700 nM.
“Dimeric full‐length VWF (ΔPro‐VWF) (from UniProt P04275 764-2813) (natural protein)” came in with a Kd with GpIbα‐Fc fusion protein [2] of 102 nM. This lies in the sub-micromolar range.
Take GpIbα‐Fc fusion protein: the Kd in test [3] worked out at 7.5 nM; in test [4], 15 nM; in test [5] it was 5 nM; in test [6], 7 nM.
On to “ΔD′D3‐VWF with Ala mutations replacing Thr/Ser (ΔD′D3OG‾‐VWF) (from UniProt P04275 1243-2813) (domain or fragment)”, for which, in the test with GpIbα‐Fc fusion protein [2], the Kd amounted to 2.4 nM.
Same read-out and setting: for “ΔD′D3‐VWF lacking the NFP (ΔD′D3NFP‾‐VWF) (from UniProt P04275 1267-2813) (domain or fragment)” the value was 0.7 nM.
Consider “VWF‐A1 (monomeric A1 domain with the N‐terminal flanking peptide) (from UniProt P04275 1243-1480) (domain or fragment)”, for which, in the test with GpIbα‐Fc fusion protein [1], the equilibrium dissociation constant (Kd) is 1200 nM.
